Substrate: N[C@@H](CCC(=O)N[C@H](CSc1ccc([N+](=O)[O-])cc1[N+](=O)[O-])C(=O)NCC(=O)O)C(=O)O
Experiment: TP_TRANSPORTER: uptake in membrane vesicle from MRP1-expressing HeLa cells
Type: functional, cell membranes

B1: Multidrug resistance-associated protein 1 (Homo sapiens) (protein)
chain: MALRGFCSADGSDPLWDWNVTWNTSNPDFTKCFQNTVLVWVPCFYLWACFPFYFLYLSRHDRGYIQMTPLNKTKTALGFLLWIVCWADLFYSFWERSRGIFLAPVFLVSPTLLGITMLLATFLIQLERRKGVQSSGIMLTFWLVALVCALAILRSKIMTALKEDAQVDLFRDITFYVYFSLLLIQLVLSCFSDRSPLFSETIHDPNPCPESSASFLSRITFWWITGLIVRGYRQPLEGSDLWSLNKEDTSEQVVPVLVKNWKKECAKTRKQPVKVVYSSKDPAQPKESSKVDANEEVEALIVKSPQKEWNPSLFKVLYKTFGPYFLMSFFFKAIHDLMMFSGPQILKLLIKFVNDTKAPDWQGYFYTVLLFVTACLQTLVLHQYFHICFVSGMRIKTAVIGAVYRKALVITNSARKSSTVGEIVNLMSVDAQRFMDLATYINMIWSAPLQVILALYLLWLNLGPSVLAGVAVMVLMVPVNAVMAMKTKTYQVAHMKSKDNRIKLMNEILNGIKVLKLYAWELAFKDKVLAIRQEELKVLKKSAYLSAVGTFTWVCTPFLVALCTFAVYVTIDENNILDAQTAFVSLALFNILRFPLNILPMVISSIVQASVSLKRLRIFLSHEELEPDSIERRPVKDGGGTNSITVRNATFTWARSDPPTLNGITFSIPEGALVAVVGQVGCGKSSLLSALLAEMDKVEGHVAIKGSVAYVPQQAWIQNDSLRENILFGCQLEEPYYRSVIQACALLPDLEILPSGDRTEIGEKGVNLSGGQKQRVSLARAVYSNADIYLFDDPLSAVDAHVGKHIFENVIGPKGMLKNKTRILVTHSMSYLPQVDVIIVMSGGKISEMGSYQELLARDGAFAEFLRTYASTEQEQDAEENGVTGVSGPGKEAKQMENGMLVTDSAGKQLQRQLSSSSSYSGDISRHHNSTAELQKAEAKKEETWKLMEADKAQTGQVKLSVYWDYMKAIGLFISFLSIFLFMCNHVSALASNYWLSLWTDDPIVNGTQEHTKVRLSVYGALGISQGIAVFGYSMAVSIGGILASRCLHVDLLHSILRSPMSFFERTPSGNLVNRFSKELDTVDSMIPEVIKMFMGSLFNVIGACIVILLATPIAAIIIPPLGLIYFFVQRFYVASSRQLKRLESVSRSPVYSHFNETLLGVSVIRAFEEQERFIHQSDLKVDENQKAYYPSIVANRWLAVRLECVGNCIVLFAALFAVISRHSLSAGLVGLSVSYSLQVTTYLNWLVRMSSEMETNIVAVERLKEYSETEKEAPWQIQETAPPSSWPQVGRVEFRNYCLRYREDLDFVLRHINVTINGGEKVGIVGRTGAGKSSLTLGLFRINESAEGEIIIDGINIAKIGLHDLRFKITIIPQDPVLFSGSLRMNLDPFSQYSDEEVWTSLELAHLKDFVSALPDKLDHECAEGGENLSVGQRQLVCLARALLRKTKILVLDEATAAVDLETDDLIQSTIRTQFEDCTVLTIAHRLNTIMDYTRVIVLDKGEIQEYGAPSDLLQQRGLFYSMAKDAGLV
  Km: 3.6 µM

— ChEMBL document CHEMBL2074072, “Transport of glutathione, glucuronate, and sulfate conjugates by the MRP gene-encoded conjugate export pump” (Cancer Res, 1996)
